B1: PCNA2 (other, Sulfolobus solfataricus, UniProt Q97Z84 1-245, looked up)
chain: MKAKVIDAVSFSYILRTVGDFLSEANFIVTKEGIRVSGIDPSRVVFLDIFLPSSYFEGFEVSQEKEIIGFKLEDVNDILKRVLKDDTLILSSNESKLTLTFDGEFTRSFELPLIQVESTQPPSVNLEFPFKAQLLTITFADIIDELSDLGEVLNIHSKENKLYFEVIGDLSTAKVELSTDNGTLLEASGADVSSSYGMEYVANTTKMRRASDSMELYFGSQIPLKLRFKLPQEGYGDFYIAPRAD
notes: also called PCNA2 wild-type subunit
B2: PCNA2dm (other)
chain: MGSSHHHHHHSSGLVPRGSHMMKAKVIDAVSFSYILRTVGDFLSEANFIVTKEGIRVSGIDPSRVVFLDIFLPSSYFEGFEVSQEKEIIGFKLEDVNDILKRVLKDDTLILSSNESKLTLTFDGEFTRSFELPLIQVESTQPPSVNLEFPFKAQLLTITFADIIDELSDLGEVLNIHSKENKLYFEVIGDLVTVKVELSTDNGTLLEASGADVSSSYGMEYVANTTKMRRASDSMELYFGSQIPLKLRFKLPQEGYGDFYIAPRAD
notes: also called second scaffold fragment 210; PCNA2 S172V/A174V mutant subunit

Holding throughout (assay): BLI (BLItz, ForteBio); the partner on the sensor is not stated
In one assay the target is T1, PCNA1 (Sulfolobus solfataricus, UniProt P57766 1-249).
T1 construct: also called PCNA1 wild-type subunit
T1 sequence (looked up): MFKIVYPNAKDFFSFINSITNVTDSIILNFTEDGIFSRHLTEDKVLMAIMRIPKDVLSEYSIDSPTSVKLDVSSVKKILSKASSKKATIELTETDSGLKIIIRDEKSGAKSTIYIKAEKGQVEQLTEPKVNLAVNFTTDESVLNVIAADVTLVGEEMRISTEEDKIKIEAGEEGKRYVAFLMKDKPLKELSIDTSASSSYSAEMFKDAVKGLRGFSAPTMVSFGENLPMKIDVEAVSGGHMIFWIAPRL

The next assay deals with T2, PCNA3dm (Sulfolobus solfataricus).
T2 construct: also called third scaffold fragment 310; PCNA3 Y73F/S170V mutant subunit
T2 chain: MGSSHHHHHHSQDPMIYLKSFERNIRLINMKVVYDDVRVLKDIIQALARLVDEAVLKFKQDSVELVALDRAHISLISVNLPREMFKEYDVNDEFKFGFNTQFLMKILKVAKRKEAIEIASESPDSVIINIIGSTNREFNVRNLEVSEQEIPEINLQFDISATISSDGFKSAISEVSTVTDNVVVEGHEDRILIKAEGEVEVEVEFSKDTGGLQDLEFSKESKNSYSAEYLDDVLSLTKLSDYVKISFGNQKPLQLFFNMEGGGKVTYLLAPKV

The assay “PCNA2” addresses B1.
For the assay “PCNA2dm”, the target named is B2.

Regarding B1, the Kd in the assay with PCNA1 is 6.31 nM. Turning to B2, the Kd with PCNA3dm amounted to 571 nM.

B3: PCNA3 (other, Sulfolobus solfataricus, UniProt P57765 1-244, looked up)
chain: MKVVYDDVRVLKDIIQALARLVDEAVLKFKQDSVELVALDRAHISLISVNLPREMFKEYDVNDEFKFGFNTQYLMKILKVAKRKEAIEIASESPDSVIINIIGSTNREFNVRNLEVSEQEIPEINLQFDISATISSDGFKSAISEVSTVTDNVVVEGHEDRILIKAEGESEVEVEFSKDTGGLQDLEFSKESKNSYSAEYLDDVLSLTKLSDYVKISFGNQKPLQLFFNMEGGGKVTYLLAPKV
notes: also called PCNA3 wild-type subunit
The molecule B3 had a Kd in the assay with PCNA2 of 3.17 µM.

B4: PCNA1dm (other)
chain: MFKIVYPNAKDFFSFINSITNVTDSIILNFTEDGIFSRHLTEDKVLMAIMRIPKDVLSEYSIDSPTSVKLDVSSVKKILSKASSKKATIELTETDSGLKIIIRDEKSGAKSKIKIKAEKGQVEQLTEPKVNLAVNFTTDESVLNVIAADVTLVGEEMRISTEEDKIKIEAGEEGKRYVAFLMKDKPLKELSIDTSASSSYSAEMFKDAVKGLRGFSAPTMVSFGENLPMKIDVEAVSGGHMIFWIAPRL
notes: also called first scaffold fragment 110; PCNA1 T112K/Y114K mutant subunit
B4: binding with PCNA2dm was put at a Kd of 2.65 nM.
